# Experimental data as given in PMC10711807.
# B1: IRAK1, recombinant from bacteria, P51617 1-712 (enzyme)
# chain: MAGGPGPGEPAAPGAQHFLYEVPPWVMCRFYKVMDALEPADWCQFAALIVRDQTELRLCERSGQRTASVLWPWINRNARVADLVHILTHLQLLRARDIITAWHPPAPLPSPGTTAPRPSSIPAPAEAEAWSPRKLPSSASTFLSPAFPGSQTHSGPELGLVPSPASLWPPPPSPAPSSTKPGPESSVSLLQGARPFPFCWPLCEISRGTHNFSEELKIGEGGFGCVYRAVMRNTVYAVKRLKENADLEWTAVKQSFLTEVEQLSRFRHPNIVDFAGYCAQNGFYCLVYGFLPNGSLEDRLHCQTQACPPLSWPQRLDILLGTARAIQFLHQDSPSLIHGDIKSSNVLLDERLTPKLGDFGLARFSRFAGSSPSQSSMVARTQTVRGTLAYLPEEYIKTGRLAVDTDTFSFGVVVLETLAGQRAVKTHGARTKYLKDLVEEEAEEAGVALRSTQSTLQAGLAADAWAAPIAMQIYKKHLDPRPGPCPPELGLGLGQLACCCLHRRAKRRPPMTQVYERLEKLQAVVAGVPGHSEAASCIPPSPQENSYVSSTGRAHSGAAPWQPLAAPSGASAQAAEQLQRGPNQPVESDESLGGLSAALRSWHLTPSCPLDPAPLREAGCPQGDTAGESSWGSGPGSRPTAVEGLALGSSASSSSEPPQIIINPARQKMVQKLALYEDGALDSLQLLSSSSLPGLGLEQDRQGPEESDEFQS
# modifications: here or on the partner: biotin (biotinylated TOLLIP; site not told)
# Biological target: TOLLIP, recombinant from bacteria, biotinylated (human), Q9H0E2
# Assay: BLI
# Conditions: remark: other sources report otherwise
binder,measurement,value
B1,Kd,91.5 nM
